These results are taken from the Human Domainome abundance scans (Beltran et al. 2025).

± gives the uncertainty stated by the source.

The nature of this data set: abundance fitness (aPCA) (normalised: wild type 0, dead -1); higher = more abundant; growth selection in yeast, the domain comes from the species named. The note with it: Homo sapiens.
“Lipoamide acyltransferase component of branched-chain alpha-keto acid dehydrogenase complex, mitochondrial E203Q, P11182” gave an abundance fitness of -0.104 ± 0.058.

Consider “Lipoamide acyltransferase component of branched-chain alpha-keto acid dehydrogenase complex, mitochondrial E203R, P11182”, for which the abundance fitness amounted to 0.024 ± 0.037.

“Lipoamide acyltransferase component of branched-chain alpha-keto acid dehydrogenase complex, mitochondrial E203S, P11182”: the abundance fitness was -0.007 ± 0.067.

Take “Lipoamide acyltransferase component of branched-chain alpha-keto acid dehydrogenase complex, mitochondrial E203T, P11182”: the abundance fitness was -0.109 ± 0.087.

As for “Lipoamide acyltransferase component of branched-chain alpha-keto acid dehydrogenase complex, mitochondrial E203V, P11182”, the abundance fitness was -0.08 ± 0.042.

With “Lipoamide acyltransferase component of branched-chain alpha-keto acid dehydrogenase complex, mitochondrial E210A, P11182”, the abundance fitness is 0.021 ± 0.038.

In the case of “Lipoamide acyltransferase component of branched-chain alpha-keto acid dehydrogenase complex, mitochondrial E210C, P11182”, the abundance fitness is -0.048 ± 0.053.

For the substance “Lipoamide acyltransferase component of branched-chain alpha-keto acid dehydrogenase complex, mitochondrial E210D, P11182”, the abundance fitness was -0.006 ± 0.058.

“Lipoamide acyltransferase component of branched-chain alpha-keto acid dehydrogenase complex, mitochondrial E210F, P11182” came in with an abundance fitness of -0.24 ± 0.066.

“Lipoamide acyltransferase component of branched-chain alpha-keto acid dehydrogenase complex, mitochondrial E210H, P11182” came in with an abundance fitness of -0.319 ± 0.15.

The substance “Lipoamide acyltransferase component of branched-chain alpha-keto acid dehydrogenase complex, mitochondrial E210I, P11182” displayed an abundance fitness of -0.239 ± 0.055.

Take “Lipoamide acyltransferase component of branched-chain alpha-keto acid dehydrogenase complex, mitochondrial E210K, P11182”: the abundance fitness was 0.034 ± 0.072.

As for “Lipoamide acyltransferase component of branched-chain alpha-keto acid dehydrogenase complex, mitochondrial E210L, P11182”, the abundance fitness is -0.133 ± 0.041.

On to “Lipoamide acyltransferase component of branched-chain alpha-keto acid dehydrogenase complex, mitochondrial E210M, P11182”, for which the abundance fitness was -0.109 ± 0.044.

As for “Lipoamide acyltransferase component of branched-chain alpha-keto acid dehydrogenase complex, mitochondrial E210N, P11182”, the abundance fitness is -0.061 ± 0.08.

In turn, “Lipoamide acyltransferase component of branched-chain alpha-keto acid dehydrogenase complex, mitochondrial E210P, P11182” had an abundance fitness of -0.081 ± 0.056.

In turn, “Lipoamide acyltransferase component of branched-chain alpha-keto acid dehydrogenase complex, mitochondrial E210Q, P11182” came in with an abundance fitness of -0.042 ± 0.053.

In turn, “Lipoamide acyltransferase component of branched-chain alpha-keto acid dehydrogenase complex, mitochondrial E210R, P11182” gave an abundance fitness of 0.008 ± 0.039.

The substance “Lipoamide acyltransferase component of branched-chain alpha-keto acid dehydrogenase complex, mitochondrial E210S, P11182” came in with an abundance fitness of -0.019 ± 0.042.

On to “Lipoamide acyltransferase component of branched-chain alpha-keto acid dehydrogenase complex, mitochondrial E210T, P11182”, for which the abundance fitness was -0.041 ± 0.056.

Substance “Lipoamide acyltransferase component of branched-chain alpha-keto acid dehydrogenase complex, mitochondrial G193A, P11182” came in with an abundance fitness of -0.199 ± 0.039.

Consider “Lipoamide acyltransferase component of branched-chain alpha-keto acid dehydrogenase complex, mitochondrial G193C, P11182”, for which the abundance fitness was -0.647 ± 0.059.

Take “Lipoamide acyltransferase component of branched-chain alpha-keto acid dehydrogenase complex, mitochondrial G193D, P11182”: the abundance fitness is -0.773 ± 0.088.

“Lipoamide acyltransferase component of branched-chain alpha-keto acid dehydrogenase complex, mitochondrial G193E, P11182” yielded an abundance fitness of -0.706 ± 0.067.

For “Lipoamide acyltransferase component of branched-chain alpha-keto acid dehydrogenase complex, mitochondrial G193H, P11182”, the abundance fitness is -0.908 ± 0.2.

Consider “Lipoamide acyltransferase component of branched-chain alpha-keto acid dehydrogenase complex, mitochondrial G193I, P11182”, for which the abundance fitness is -0.951 ± 0.12.

Take “Lipoamide acyltransferase component of branched-chain alpha-keto acid dehydrogenase complex, mitochondrial G193K, P11182”: the abundance fitness is -0.732 ± 0.057.

For “Lipoamide acyltransferase component of branched-chain alpha-keto acid dehydrogenase complex, mitochondrial G193L, P11182”, the abundance fitness is -0.863 ± 0.061.

In turn, “Lipoamide acyltransferase component of branched-chain alpha-keto acid dehydrogenase complex, mitochondrial G193M, P11182” registered an abundance fitness of -0.694 ± 0.073.

The substance “Lipoamide acyltransferase component of branched-chain alpha-keto acid dehydrogenase complex, mitochondrial G193P, P11182” had an abundance fitness of -0.08 ± 0.051.

“Lipoamide acyltransferase component of branched-chain alpha-keto acid dehydrogenase complex, mitochondrial G193Q, P11182” displayed an abundance fitness of -0.573 ± 0.061.

In turn, “Lipoamide acyltransferase component of branched-chain alpha-keto acid dehydrogenase complex, mitochondrial G193R, P11182” had an abundance fitness of -0.692 ± 0.04.

Consider “Lipoamide acyltransferase component of branched-chain alpha-keto acid dehydrogenase complex, mitochondrial G193S, P11182”, for which the abundance fitness is -0.308 ± 0.056.
